From doi:10.1101/2023.10.09.561517 (bioRxiv, 2023)
Where “and” joins values, the source holds several entries; their conditions need not be identical. Equal values may be shown once. Blank lines part the entries; values can stand above or below the molecule they belong to.

Legend:
[1] = biological target: CaMKIIα hub domain; experiment: mass photometry
[2] = biological target: CaMKIIβ full-length hub domain (residues 534-666) (human); experiment: crystal structure
[3] = biological target: CaMKIIβ full-length hub domain (residues 534-666) (human); experiment: mass photometry
[4] = biological target: CaMKIIβ full-length hub domain (residues 534-666) (human); experiment: mass photometry; remark: listed apart in the source
[5] = biological target: CaMKIIβ full-length hub domain (residues 534-666) (human); experiment: crystal structure; remark: listed apart in the source
[6] = biological target: the molecule itself; experiment: SEC-MALS

- stoichiometry N [1]: 16
Molecule: CaMKIIα hub domain (domain or fragment)

- stoichiometry N [2]: 16
- stoichiometry N [3]: 14 and 16
- stoichiometry N [4]: 12 and 14 and 16
- stoichiometry N [5]: 14
Molecule: CaMKIIβ full-length hub domain (residues 534-666) (domain or fragment)

B1: CaMKIIβ hub dimer variant (F585A + L622M) (domain or fragment, human, UniProt Q13554 534-666, looked up)
chain: RKQEIIKTTEQLIEAVNNGDFEAYAKICDPGLTSFEPEALGNLVEGMDFHRAYFENLLAKNSKPIHTTILNPHVHVIGEDAACIAYIRMTQYIDGQGRPRTSQSEETRVWHRRDGKWQNVHFHCSGAPVAPLQ
- stoichiometry N [6]: 2
